Data reported in patent US8987424B2, “CA6 antigen-specific cytotoxic conjugate and methods of using the same” (ImmunoGen, Inc., priority 2003, dated 2015).

Key:
[1] = tested on: A375 cells (antigen negative); assay: Clonogenic assay; type: cell-based, human; details: 3×10^−9 M, highest concentration tested
Protocol: (§1) The cytotoxicity of maytansinoid conjugated muDS6 antibody was examined using 2 different assay formats in various DS6 positive cell lines. Clonogenic assays were conducted where cells (1000-2500 cells/well) were plated on 6-well plates in 2 ml of conjugate diluted in culture media. […] The wells were washed with PBS and the colonies were stained with a 1% w/v crystal violet/10% v/v formaldehyde/PBS solution. Unbound stain was then washed thoroughly from the wells with distilled water, and the plates were allowed to dry. The colonies were counted using a Leica StereoZoom 4 dissecting microscope.
(§2) Plating efficiency (PE) was calculated as the number of colonies/number of cells plated. Surviving fraction was calculated as PE of treated cells/PE of non-treated cells. The IC50 concentration was determined by graphing the surviving fraction of cells vs. the molar concentration of the conjugate.

[2] = tested on: cervical cell lines (HeLa, KB, and WISH); assay: Clonogenic assay; type: cell-based, human
Protocol: as §1, §2

pancreatic cell lines = assay: Clonogenic assay; type: cell-based, human
Protocol: as §1, §2

BT-20 cells [3] = assay: MTT cell viability assay; type: cell-based, human; details: highest conjugate concentration (32 nM)
Protocol: (§3) In the MTT assay, cells were seeded in 96-well plates at a density of 1000-5000 cells/well. The cells were plated with serial dilutions of either naked muDS6 or muDS6-DM1 immunoconjugate in 200 μl of culture media. The samples were run in triplicate. The cells and antibody/conjugate mixtures were then incubated for 2-7 d, at which time cell viability was assessed by an MTT ([3(4,5-dimethylthiazol-2-yl)-2,5-diphenyl tetrazolium bromide)] assay. MTT (50 μg/well) was added to the culture supernatant and allowed to incubate for 3-4 h at 37° C. The media was removed and the MTT formazan was solubilized in DMSO (175 μl/well). The absorbance at 540-545 nm was measured. […] The wells with the highest concentrations of conjugate contained no viable cells as compared to naked antibody which had no effect (FIGS. 21 and 24).

OVCAR5 cells [4] = assay: MTT cell viability assay; type: cell-based, human; details: highest conjugate concentration (32 nM)
Protocol: as §3

HPAC cells [5] = assay: MTT cell viability assay; type: cell-based, human; details: highest conjugate concentration (32 nM)
Protocol: as §3

MDA-MB-157 cells = assay: Flow cytometry binding assay; parameters: species or system human
Protocol: (§4) Flow cytometric analysis was used to localize the DS6 epitope, CA6, to the cell surface. Human cell lines were obtained from the American Type Culture Collection (ATCC) with the exception of OVCAR5 (Kearse et al., Int. J. Cancer 88(6):866-872 (2000)), OVCAR8 and IGROV1 cells (M. Seiden, Massachusetts General Hospital). All cells were grown in RPMI 1640 supplemented with 4 mM L-glutamine, 50 U/ml penicillin, 50 μg/ml streptomycin (Cambrex Bio Science, Rockland, Me.) and 10% v/v fetal bovine serum (Atlas Biologicals, Fort Collins, Colo.), referred hereafter as culture media. Cells were maintained in a 37° C., 5% CO2 humidified incubator.
(§5) Cells ([…]) were incubated, on ice for 3-4 h, with serially diluted concentrations of the DS6 antibody prepared in FACS buffer (2% goat serum, RPMI) into 96-well plates. The cells were spun down in a table top centrifuge at 1500 rpm for 5 min at 4° C. After removing the media, the wells were then refilled with 150 μl of FACS buffer. The wash step was then repeated. FITC-labeled goat anti-mouse IgG (Jackson Immunoresearch) was diluted 1:100 to FACS buffer and incubated with the cells for 1 h on ice. The plate was covered in foil to prevent photobleaching of the signal. After two washes, the cells were fixed with 1% formaldehyde and analyzed on a flow cytometer.

MDA-MB-468 cells = assay: Flow cytometry binding assay; parameters: species or system human
Protocol: as §4, §5

HPAF-II cells = assay: Flow cytometry binding assay; parameters: species or system human
Protocol: as §4, §5

BT-483 cells = assay: Flow cytometry binding assay; parameters: species or system human
Protocol: as §4, §5

ZR-75-1 cells = assay: Flow cytometry binding assay; parameters: species or system human
Protocol: as §4, §5

BT-20 cells [6] = assay: Flow cytometry binding assay; parameters: species or system human
Protocol: as §4, §5

Hs766T cells = assay: Flow cytometry binding assay; parameters: species or system human
Protocol: as §4, §5

KLE cells = assay: Flow cytometry binding assay; parameters: species or system human
Protocol: as §4, §5

T98G cells = assay: Flow cytometry binding assay; parameters: species or system human
Protocol: as §4, §5

SU.86.86 cells = assay: Flow cytometry binding assay; parameters: species or system human
Protocol: as §4, §5

MCF-7 cells = assay: Flow cytometry binding assay; parameters: species or system human
Protocol: as §4, §5

Colo205 cells = assay: Flow cytometry binding assay; parameters: species or system human; details: Colo205, antigen negative cell line
Protocol: as §4, §5

PC-3 cells = assay: Flow cytometry binding assay; parameters: species or system human
Protocol: as §4, §5

SK-OV-3 cells = assay: Flow cytometry binding assay; parameters: species or system human
Protocol: as §4, §5

OVCAR5 cells [7] = assay: Flow cytometry binding assay; parameters: species or system human
Protocol: as §4, §5

MDA-MB-231 cells = assay: Flow cytometry binding assay; parameters: species or system human
Protocol: as §4, §5

CAMA-1 cells = assay: Flow cytometry binding assay; parameters: species or system human
Protocol: as §4, §5

HPAC cells [8] = assay: Flow cytometry binding assay; parameters: species or system human
Protocol: as §4, §5

BxPC-3 cells = assay: Flow cytometry binding assay; parameters: species or system human
Protocol: as §4, §5

Caov-3 cells = assay: MTT cell viability assay; type: cell-based, human
Protocol: as §3

B1: DS6-DM1: muDS6 antibody modified with SPP and conjugated to the maytansinoid DM1 (conjugate)
VH: QAYLQQSGAELVRSGASVKMSCKASGYTFTSYNMHWVKQTPGQGLEWIGYIYPGNGATNYNQKFKGKATLTADPSSSTAYMQISSLTSEDSAVYFCARGDSVPFAYWGQGTLVTVSA
VL: QIVLTQSPAIMSASPGEKVTITCSAHSSVSFMHWFQQKPGTSPKLWIYSTSSLASGVPARFGGSGSGTSYSLTISRMEAEDAATYYCQQRSSFPLTFGAGTKLELKR
effect of conjugate on antigen negative cells [1]: only slightly affected | sensitivity to the conjugate [2]: sensitive | sensitivity to the conjugate (pancreatic cell lines): None of the pancreatic cell lines appeared to have been affected | cells still viable (BT-20 cells [3]): over 50% | cells still viable (OVCAR5 cells [4]): over 50% | cells still viable (HPAC cells [5]): over 50%

B2: DS6: murine anti-CA6 monoclonal antibody DS6 (ATCC deposit number PTA-4449) (antibody, V domains shown)
VH: B1 VH
VL: B1 VL
MMF (average maximum relative mean fluorescence) (MDA-MB-157 cells): 8.635 | MMF (average maximum relative mean fluorescence) (MDA-MB-468 cells): 71.58 | MMF (average maximum relative mean fluorescence) (HPAF-II cells): 266.50 | MMF (average maximum relative mean fluorescence) (BT-483 cells): 1911.00 | MMF (average maximum relative mean fluorescence) (ZR-75-1 cells): 811.67 | MMF (average maximum relative mean fluorescence) (BT-20 cells [6]): 232.20 | MMF (average maximum relative mean fluorescence) (Hs766T cells): 182.90 | MMF (maximum mean relative fluorescence) (KLE cells): 27.48 | MMF (average maximum relative mean fluorescence) (T98G cells): 35.94 | Kd (T98G cells; read-out: Apparent Kd): 0.178 nM | MMF (average maximum relative mean fluorescence) (SU.86.86 cells): 36.86 | MMF (average maximum relative mean fluorescence) (MCF-7 cells): 81.41 | antigen specific binding (Colo205 cells): no antigen specific binding | MMF (average maximum relative mean fluorescence) (PC-3 cells): 24.81 | antigen specific binding (SK-OV-3 cells; SK-OV-3, antigen negative cell line): no antigen specific binding | MMF (maximum mean relative fluorescence) (SK-OV-3 cells; SKOV3): 17.53 | MMF (average maximum relative mean fluorescence) (OVCAR5 cells [7]): 97.10 | MMF (average maximum relative mean fluorescence) (MDA-MB-231 cells): 31.85 | MMF (average maximum relative mean fluorescence) (CAMA-1 cells): 12.46 | MMF (average maximum relative mean fluorescence) (HPAC cells [8]): 2228.00 | MMF (average maximum relative mean fluorescence) (BxPC-3 cells): 79.99 | effect of naked antibody on cell viability (Caov-3 cells): no effect
